Here are results for one substance from publication PMC11033526, “Direct binding of calmodulin to the cytosolic C-terminal regions of sweet/umami taste receptors” (Journal of Biochemistry, 2023).

Assay [1] has as its target biotin-mT1r1 CT peptide (cytosolic C-terminal region of mouse taste receptor type 1 subunit 1) (mouse) (UniProt Q99PG6). Description: SPR; Biacore 2000; biotinylated T1r peptides on a CAP chip (Biotin CAPture Kit); mCaM injected, 2-fold dilutions from 50 μM, -Ca2+ (1 mM EGTA), 25°C, 30 μl/min. On the technique in general: Surface plasmon resonance follows binding to a sensor surface in real time, without labels.

Assay [2] has as its target biotin-mT1r3 CT peptide (cytosolic C-terminal region of mouse taste receptor type 1 subunit 3) (mouse) (UniProt Q925D8). The description is as above.
Assay [3] concerns the target biotin-mT1r2 CT peptide (cytosolic C-terminal region of mouse taste receptor type 1 subunit 2) (mouse) (UniProt Q925I4). Described as above.
The target in assay [4] is biotin-mT1r1 CT peptide (cytosolic C-terminal region of mouse taste receptor type 1 subunit 1) (mouse) (UniProt Q99PG6). Description: SPR; Biacore 2000; biotinylated T1r peptides on a CAP chip (Biotin CAPture Kit); mCaM injected, 2-fold dilutions from 50 μM, +Ca2+ (1 mM CaCl2), 25°C, 30 μl/min; KD from equilibrium responses, 1:1 model.
The target in assay [5] is biotin-mT1r3 CT peptide (cytosolic C-terminal region of mouse taste receptor type 1 subunit 3) (mouse) (UniProt Q925D8). The assay is described as above.
The target in assay [6] is biotin-mT1r2 CT peptide (cytosolic C-terminal region of mouse taste receptor type 1 subunit 2) (mouse) (UniProt Q925I4). Described as above.
The target of assay [7] is FLAG-ySUMO-mT1r2 CTΔ (mouse). Description: SPR; Biacore 2000; ySUMO-fusion proteins amine-coupled on a CM5 chip, ySUMO on the reference cell; mCaM injected, 2-fold dilutions from 40 μM, +Ca2+ (1 mM CaCl2), 25°C, 30 μl/min; KD from equilibrium responses, 1:1 model.
Assay [8] has as its target FLAG-ySUMO-mT1r3 CTΔ (mouse). The assay is described as above.
The target of assay [9] is FLAG-ySUMO-mT1r2 CTΔ (mouse). Description: SPR; Biacore 2000; ySUMO-fusion proteins amine-coupled on a CM5 chip, ySUMO on the reference cell; mCaM injected, 2-fold dilutions from 40 μM, -Ca2+ (1 mM EGTA), 25°C, 30 μl/min.
Assay [10] has as its target FLAG-ySUMO-mT1r3 CTΔ (mouse). The assay is described as above.

biotin-mT1r1 CT peptide (cytosolic C-terminal region of mouse taste receptor type 1 subunit 1) (mouse), sequence (Q99PG6 other isoform, or with tags, fused parts or gaps): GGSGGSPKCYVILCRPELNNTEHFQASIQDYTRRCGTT
biotin-mT1r3 CT peptide (cytosolic C-terminal region of mouse taste receptor type 1 subunit 3) (mouse), sequence (Q925D8 other isoform, or with tags, fused parts or gaps): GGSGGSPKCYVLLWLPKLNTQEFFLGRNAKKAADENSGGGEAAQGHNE
biotin-mT1r2 CT peptide (cytosolic C-terminal region of mouse taste receptor type 1 subunit 2) (mouse), sequence (Q925I4 other isoform, or with tags, fused parts or gaps): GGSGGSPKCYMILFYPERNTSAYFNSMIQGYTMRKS

With “mouse calmodulin (from UniProt P0DP26 1-149) (natural protein)”, the response at 50 μM mCaM injection was determined as 5 RU in assay [1], 16 RU in assay [2] and 9.4 RU in [3]. In assay [4], this substance returned a Req value at 25 μM mCaM injection of 10.6 RU. In addition, the Req value at 50 μM mCaM injection was determined as 36.7 RU in assay [5] and 11 RU in assay [6]. For the same substance, the results for the equilibrium dissociation constant (Kd) in assay [7] and in [8] were 41 µM and 80 µM, respectively. The Req value at 40 μM mCaM injection in assay [7] amounted to 114 RU; in assay [8], 101 RU. For the same substance, the response at 40 μM mCaM injection in [9] is 9.2 RU; in assay [10], 13 RU.
